The labels stand for the following.
B1: Two-component response regulator-like APRR1 (Arabidopsis thaliana (Mouse-ear cress)), Q9LKL2 (parent)
chain: MDLNGECKGGDGFIDRSRVRILLCDNDSTSLGEVFTLLSECSYQVTAVKSARQVIDALNAEGPDIDIILAEIDLPMAKGMKMLRYITRDKDLRRIPVIMMSRQDEVPVVVKCLKLGAADYLVKPLRTNELLNLWTHMWRRRRMLGLAEKNMLSYDFDLVGSDQSDPNTNSTNLFSDDTDDRSLRSTNPQRGNLSHQENEWSVATAPVHARDGGLGADGTATSSLAVTAIEPPLDHLAGSHHEPMKRNSNPAQFSSAPKKSRLKIGESSAFFTYVKSTVLRTNGQDPPLVDGNGSLHLHRGLAEKFQVVASEGINNTKQARRATPKSTVLRTNGQDPPLVNGNGSHHLHRGAAEKFQVVASEGINNTKQAHRSRGTEQYHSQGETLQNGASYPHSLERSRTLPTSMESHGRNYQEGNMNIPQVAMNRSKDSSQVDGSGFSAPNAYPYYMHGVMNQVMMQSAAMMPQYGHQIPHCQPNHPNGMTGYPYYHHPMNTSLQHSQMSLQNGQMSMVHHSWSPAGNPPSNEVRVNKLDRREEALLKFRRKRNQRCFDKKIRYVNRKRLAERRPRVKGQFVRKMNGVNVDLNGQPDSADYDDEEEEEEEEEEENRDSSPQDDALGT
partner: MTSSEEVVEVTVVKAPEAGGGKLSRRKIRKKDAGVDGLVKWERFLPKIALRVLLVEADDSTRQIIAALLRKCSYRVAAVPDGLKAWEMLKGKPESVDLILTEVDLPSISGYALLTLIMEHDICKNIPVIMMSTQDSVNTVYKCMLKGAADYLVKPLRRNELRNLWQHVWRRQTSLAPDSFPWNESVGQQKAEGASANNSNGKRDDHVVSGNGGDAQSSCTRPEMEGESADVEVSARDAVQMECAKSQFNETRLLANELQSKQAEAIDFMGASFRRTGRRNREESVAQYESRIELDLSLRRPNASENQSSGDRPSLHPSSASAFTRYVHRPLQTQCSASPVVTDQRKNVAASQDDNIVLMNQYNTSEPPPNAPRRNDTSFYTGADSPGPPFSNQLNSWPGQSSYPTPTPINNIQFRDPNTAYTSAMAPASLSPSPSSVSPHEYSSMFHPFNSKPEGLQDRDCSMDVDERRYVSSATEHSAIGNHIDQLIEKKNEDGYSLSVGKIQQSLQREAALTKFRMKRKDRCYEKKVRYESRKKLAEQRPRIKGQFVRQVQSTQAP
B2: Two-component response regulator-like APRR1 (Arabidopsis thaliana (Mouse-ear cress)), Q9LKL2 (parent)
chain: B1 chain

In one assay the parent is B1. The following applies: with aprr5_arath APRR5, Q6LA42.
For P124S, the “effect of a mutation on the interaction” value is “decreasing interaction”.

In the next assay the parent is B1. The settings on record: with aprr5_arath APRR5, Q6LA42. The source holds these as a separate data set.
Turning to P96L, the “effect of a mutation on the interaction” value is “disrupting interaction”.

Variants of B2 are the subject of another assay. The following applies: with ado1_arath ADO1, Q94BT6.
Sequence of ado1_arath ADO1, Q94BT6 (Q94BT6 whole entry): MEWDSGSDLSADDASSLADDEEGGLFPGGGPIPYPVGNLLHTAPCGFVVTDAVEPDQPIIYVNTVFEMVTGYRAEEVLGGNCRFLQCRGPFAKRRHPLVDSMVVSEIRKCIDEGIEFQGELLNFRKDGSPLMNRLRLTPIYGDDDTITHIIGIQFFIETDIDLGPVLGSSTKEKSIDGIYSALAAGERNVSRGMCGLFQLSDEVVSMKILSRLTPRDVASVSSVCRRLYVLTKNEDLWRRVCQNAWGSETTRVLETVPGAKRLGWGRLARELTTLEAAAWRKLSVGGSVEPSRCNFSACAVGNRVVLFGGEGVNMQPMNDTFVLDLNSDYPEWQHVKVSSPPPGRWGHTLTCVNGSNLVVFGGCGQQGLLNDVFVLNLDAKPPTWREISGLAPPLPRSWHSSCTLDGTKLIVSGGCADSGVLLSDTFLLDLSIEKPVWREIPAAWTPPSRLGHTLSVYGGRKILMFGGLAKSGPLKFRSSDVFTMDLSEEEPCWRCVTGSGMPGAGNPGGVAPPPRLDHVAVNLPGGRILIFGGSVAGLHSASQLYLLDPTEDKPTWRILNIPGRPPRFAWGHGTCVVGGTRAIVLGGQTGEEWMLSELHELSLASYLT
In the case of P96L, the “effect of a mutation on the interaction” value is “decreasing interaction”.

These data come from IntAct's records for PubMed 20407420.
